# Laboratory results taken from patent publication US20260184777A1 (BEIJING SUNGEN BIOMEDICAL TECHNOLOGY, published 2026).
# T1: human S100A8/A9 heterodimeric antigen, His-tagged (hS100A8/A9-His) (human, UniProt P05109 1-93; P06702 1-114)
# T1 sequence 1: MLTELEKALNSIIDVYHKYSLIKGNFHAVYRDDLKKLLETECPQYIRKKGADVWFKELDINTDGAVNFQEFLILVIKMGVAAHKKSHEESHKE
# T1 sequence 2: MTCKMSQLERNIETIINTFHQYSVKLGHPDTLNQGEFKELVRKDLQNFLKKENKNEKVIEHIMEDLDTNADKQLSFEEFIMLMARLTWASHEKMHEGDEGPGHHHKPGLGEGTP
# Biological target: T1, human S100A8/A9 heterodimeric antigen, …
# Experiment: cell-based or functional assay
row,"Relative IC50 (IC50 relative to CM-1), IL-6 release from hS100A8/A9-activated human PBMCs",Binder
1,0.679 relative to CM-1,"CM-50 (antibody, human IgG4 S228P, lambda, V domains shown) VH: not shown VL: SYELTQPPSVSVAPGQTARITCSGDALGDKYASWYQQKPGQAPVLVIYEDAKRPSGIPERFSGSNSGNTATLTISGTQAEDEADYYCQSNDADAVWVFGGGTKLTVLG"
2,2.12 relative to CM-1,"CM-47 (antibody, human IgG4 S228P, lambda, V domains shown) VH: not shown VL: SYELTQPPSVSVAPGQTARITCSGDALGDKYASWYQQKPGQAPVLVIYEDSKRPSGIPERFSGSNSGNTATLTISGTQAEDEADYYCQSNDIDSVWVFGGGTKLTVLG"
3,1.51 relative to CM-1,"CM-46 (antibody, human IgG4 S228P, lambda, V domains shown) VH: not shown VL: SYELTQPPSVSVAPGQTARITCSGDALGDKFASWYQQKPGQAPVLVIYEDSKRPSGIPERFSGSNSGNTATLTISGTQAEDEADYYCQSNDADSVWVFGGGTKLTVLG"
4,0.997 relative to CM-1,"CM-54 (antibody, human IgG4 S228P, lambda, V domains shown) VH: not shown VL: SYELTQPPSVSVAPGQTARITCSGDALGDKFASWYQQKPGQAPVLVIYEDSKRPSGIPERFSGSNSGNTATLTISGTQAEDEADYYCQSNDIDSVWVFGGGTKLTVLG"
5,1.58 relative to CM-1,"CM-48 (antibody, human IgG4 S228P, lambda, V domains shown) VH: not shown VL: SYELTQPPSVSVAPGQTARITCSGDALGDKFASWYQQKPGQAPVLVIYEDSKRPSGIPERFSGSNSGNTATLTISGTQAEDEADYYCQSNDIDSVWVFGGGTKLTVLG"
6,1.11 relative to CM-1,"CM-41 (antibody, human IgG4 S228P, lambda, V domains shown) VH: not shown VL: SYELTQPPSVSVAPGQTARITCSGDALGDKYASWYQQKPGQAPVLVIYEDSKRPSGIPERFSGSNSGNTATLTISGTQAEDEADYYCQSNDADAVWVFGGGTKLTVLG"
7,2.09 relative to CM-1,"CM-45 (antibody, human IgG4 S228P, lambda, V domains shown) VH: not shown VL: SYELTQPPSVSVAPGQTARITCSGDALGDKYASWYQQKPGQAPVLVIYEDAKRPSGIPERFSGSNSGNTATLTISGTQAEDEADYYCQSNDADAVWVFGGGTKLTVLG"
8,1.67 relative to CM-1,"CM-55 (antibody, human IgG4 S228P, lambda, V domains shown) VH: not shown VL: SYELTQPPSVSVAPGQTARITCSGDALGDKFASWYQQKPGQAPVLVIYEDSKRPSGIPERFSGSNSGNTATLTISGTQAEDEADYYCQSNDADAVWVFGGGTKLTVLG"
9,0.866 relative to CM-1,"CM-42 (antibody, human IgG4 S228P, lambda, V domains shown) VH: not shown VL: SYELTQPPSVSVAPGQTARITCSGDALGDKYASWYQQKPGQAPVLVIYEDSKRPSGIPERFSGSNSGNTATLTISGTQAEDEADYYCQSNDIDSVWVFGGGTKLTVLG"
10,0.936 relative to CM-1,"CM-60 (antibody, human IgG4 S228P, lambda, V domains shown) VH: not shown VL: SYELTQPPSVSVAPGQTARITCSGDALGDKYASWYQQKPGQAPVLVIYEDAKRPSGIPERFSGSNSGNTATLTISGTQAEDEADYYCQSNDIDAVWVFGGGTKLTVLG"
11,1.44 relative to CM-1,"CM-44 (antibody, human IgG4 S228P, lambda, V domains shown) VH: not shown VL: SYELTQPPSVSVAPGQTARITCSGDALGDKYASWYQQKPGQAPVLVIYEDAKRPSGIPERFSGSNSGNTATLTISGTQAEDEADYYCQSNDADAVWVFGGGTKLTVLG"
12,0.617 relative to CM-1,"CM-49 (antibody, human IgG4 S228P, lambda, V domains shown) VH: not shown VL: SYELTQPPSVSVAPGQTARITCSGDALGDKYASWYQQKPGQAPVLVIYEDAKRPSGIPERFSGSNSGNTATLTISGTQAEDEADYYCQSNDIDSVWVFGGGTKLTVLG"
13,1.58 relative to CM-1,"CM-62 (antibody, human IgG4 S228P, lambda, V domains shown) VH: EVQLVESGGGLVQPGGSLRLSCAASGFTFSSYVMSWVRQAPGKGLEWVSAISGSGGSTYYAASVKGRFTISRDNSKNTLYLQMNSLRAEDTAVYYCARKYRPSRVFDAWGQGTLVTVSS VL: SYELTQPPSVSVAPGQTARITCSGDALGDKYASWYQQKPGQAPVLVIYEDARRPSGIPERFSGSNSGNTATLTISGTQAEDEADYYCQSNDADAVWVFGGGTKLTVLG"
14,1.04 relative to CM-1,"CM-59 (antibody, human IgG4 S228P, lambda, V domains shown) VH: not shown VL: SYELTQPPSVSVAPGQTARITCSGDALGDKYASWYQQKPGQAPVLVIYEDAKRPSGIPERFSGSNSGNTATLTISGTQAEDEADYYCQSNDIDAVWVFGGGTKLTVLG"
15,0.923 relative to CM-1,"CM-61 (antibody, human IgG4 S228P, lambda, V domains shown) VH: EVQLVESGGGLVQPGGSLRLSCAASGFTYSSYAMSWVRQAPGKGLEWVSAISGSGGSTYYAASVKGRFTISRDNSKNTLYLQMNSLRAEDTAVYYCARKYRPSRVFDAWGQGTLVTVSS VL: SYELTQPPSVSVAPGQTARITCSGDALGDKYASWYQQKPGQAPVLVIYQDAKRPSGIPERFSGSNSGNTATLTISGTQAEDEADYYCQSNDADAVWVFGGGTKLTVLG"
16,0.357 relative to CM-1,"CM-53 (antibody, human IgG4 S228P, lambda, V domains shown) VH: not shown VL: SYELTQPPSVSVAPGQTARITCSGDALGDKYASWYQQKPGQAPVLVIYEDAKRPSGIPERFSGSNSGNTATLTISGTQAEDEADYYCQSNDADAVWVFGGGTKLTVLG"
17,1.52 relative to CM-1,"CM-58 (antibody, human IgG4 S228P, lambda, V domains shown) VH: EVQLVESGGGLVQPGGSLRLSCAASGFTFSSYAMSWVRQAPGKGLEWVSAISGSGGSTWYAASVKGRFTISRDNSKNTLYLQMNSLRAEDTAVYYCARKYRPSRVFDAWGQGTLVTVSS VL: SYELTQPPSVSVAPGQTARITCSGDALGDKYASWYQQKPGQAPVLVIYEDAKRPSGIPERFSGSNSGNTATLTISGTQAEDEADYYCQSNDIDAVWVFGGGTKLTVLG"
18,2.18 relative to CM-1,"CM-40 (antibody, human IgG4 S228P, lambda, V domains shown) VH: not shown VL: SYELTQPPSVSVAPGQTARITCSGDALGDKYASWYQQKPGQAPVLVIYEDSKRPSGIPERFSGSNSGNTATLTISGTQAEDEADYYCQSNDVDSVWVFGGGTKLTVLG"
19,1.99 relative to CM-1,"CM-43 (antibody, human IgG4 S228P, lambda, V domains shown) VH: not shown VL: SYELTQPPSVSVAPGQTARITCSGDALGDKYASWYQQKPGQAPVLVIYEDAKRPSGIPERFSGSNSGNTATLTISGTQAEDEADYYCQSNDADSVWVFGGGTKLTVLG"
20,1.19 relative to CM-1,"CM-52 (antibody, human IgG4 S228P, lambda, V domains shown) VH: not shown VL: SYELTQPPSVSVAPGQTARITCSGDALGDKYASWYQQKPGQAPVLVIYEDAKRPSGIPERFSGSNSGNTATLTISGTQAEDEADYYCQSNDIDSVWVFGGGTKLTVLG"
21,1.12 relative to CM-1,"CM-56 (antibody, human IgG4 S228P, lambda, V domains shown) VH: not shown VL: SYELTQPPSVSVAPGQTARITCSGDALGDKYASWYQQKPGQAPVLVIYEDAKRPSGIPERFSGSNSGNTATLTISGTQAEDEADYYCQSNDIDAVWVFGGGTKLTVLG"
22,1.16 relative to CM-1,"CM-57 (antibody, human IgG4 S228P, lambda, V domains shown) VH: not shown VL: SYELTQPPSVSVAPGQTARITCSGDALGDKFASWYQQKPGQAPVLVIYEDAKRPSGIPERFSGSNSGNTATLTISGTQAEDEADYYCQSNDIDAVWVFGGGTKLTVLG"
